Test results published in paper PMC9579204, “A simple thermodynamic description of phase separation of Nup98 FG domains” (Nature Communications, 2022).

Key:
[1] = molecular target: the molecule itself; assay: dynamic light scattering; self-association as LCST-type phase separation; prf.GLFG_(52×12) diluted into 20 mM NaPi pH 6.8 with 75-1200 mM NaCl, temperature raised by 1 °C per min from 2 to 40 °C; van't Hoff analysis (Formula Set 1)
[2] = molecular target: the molecule itself; assay: co-sedimentation; centrifugation assay of phase separation: FG domain diluted into 20 mM NaPi pH 6.8, 5 mM DTT, NaCl, concentration and temperature as in the figures; 21,130 × g, 30 min; pellet (FG phase) and supernatant by SDS-PAGE/Coomassie; saturation concentration = concentration left in the supernatant (Formula Set 2)

B1: prf.GLFG_(52×12) (domain or fragment)
chain: GGLFGGNTQPATGGLFGGNTQPATGGLFGGNTQPATGGLFGGNTQPATGGLFGGNTQPATGGLFGGNTQPATGGLFGGNTQPATGGLFGGNTQPATGGLFGGNTQPATGGLFGGNTQPATGGLFGGNTQPATGGLFGGNTQPATGGLFGGNTQPATGGLFGGNTQPATGGLFGGNTQPATGGLFGGNTQPATGGLFGGNTQPATGGLFGGNTQPATGGLFGGNTQPATGGLFGGNTQPATGGLFGGNTQPATGGLFGGNTQPATGGLFGGNTQPATGGLFGGNTQPATGGLFGGNTQPATGGLFGGNTQPATGGLFGGNTQPATGGLFGGNTQPATGGLFGGNTQPATGGLFGGNTQPATGGLFGGNTQPATGGLFGGNTQPATGGLFGGNTQPATGGLFGGNTQPATGGLFGGNTQPATGGLFGGNTQPATGGLFGGNTQPATGGLFGGNTQPATGGLFGGNTQPATGGLFGGNTQPATGGLFGGNTQPATGGLFGGNTQPATGGLFGGNTQPATGGLFGGNTQPATGGLFGGNTQPATGGLFGGNTQPATGGLFGGNTQPATGGLFGGNTQPATGGLFGGNTQPATGGLFGGNTQPATGGLFGGNTQPATGGLFGGNTQPAT
notes: Engineered after the MacNup98A FG domain, GLEBS deleted; also called perfectly repeated FG domain; N = 52; source: E. coli NEB Express, extracted from inclusion bodies, purified (Ni chromatography, SUMO protease cleavage, lyophilized); not shown: histidine tag with a SUMO cleavage site, N-terminal, cleaved
[1]
  dH of phase separation when [NaCl] = 0 (van't Hoff): 24.4 kcal/mol

B2: prf.GLFG_(70×12) (domain or fragment)
chain: GGLFGGNTQPATGGLFGGNTQPATGGLFGGNTQPATGGLFGGNTQPATGGLFGGNTQPATGGLFGGNTQPATGGLFGGNTQPATGGLFGGNTQPATGGLFGGNTQPATGGLFGGNTQPATGGLFGGNTQPATGGLFGGNTQPATGGLFGGNTQPATGGLFGGNTQPATGGLFGGNTQPATGGLFGGNTQPATGGLFGGNTQPATGGLFGGNTQPATGGLFGGNTQPATGGLFGGNTQPATGGLFGGNTQPATGGLFGGNTQPATGGLFGGNTQPATGGLFGGNTQPATGGLFGGNTQPATGGLFGGNTQPATGGLFGGNTQPATGGLFGGNTQPATGGLFGGNTQPATGGLFGGNTQPATGGLFGGNTQPATGGLFGGNTQPATGGLFGGNTQPATGGLFGGNTQPATGGLFGGNTQPATGGLFGGNTQPATGGLFGGNTQPATGGLFGGNTQPATGGLFGGNTQPATGGLFGGNTQPATGGLFGGNTQPATGGLFGGNTQPATGGLFGGNTQPATGGLFGGNTQPATGGLFGGNTQPATGGLFGGNTQPATGGLFGGNTQPATGGLFGGNTQPATGGLFGGNTQPATGGLFGGNTQPATGGLFGGNTQPATGGLFGGNTQPATGGLFGGNTQPATGGLFGGNTQPATGGLFGGNTQPATGGLFGGNTQPATGGLFGGNTQPATGGLFGGNTQPATGGLFGGNTQPATGGLFGGNTQPATGGLFGGNTQPATGGLFGGNTQPATGGLFGGNTQPATGGLFGGNTQPATGGLFGGNTQPATGGLFGGNTQPATGGLFGGNTQPATGGLFGGNTQPATGGLFGGNTQPATGGLFGGNTQPAT
notes: also called N = 70; not shown: histidine tag with a SUMO cleavage site, N-terminal, cleaved
[2]
  binding result: binds

B3: prf.GLFG_(44×12) (domain or fragment)
chain: GGLFGGNTQPATGGLFGGNTQPATGGLFGGNTQPATGGLFGGNTQPATGGLFGGNTQPATGGLFGGNTQPATGGLFGGNTQPATGGLFGGNTQPATGGLFGGNTQPATGGLFGGNTQPATGGLFGGNTQPATGGLFGGNTQPATGGLFGGNTQPATGGLFGGNTQPATGGLFGGNTQPATGGLFGGNTQPATGGLFGGNTQPATGGLFGGNTQPATGGLFGGNTQPATGGLFGGNTQPATGGLFGGNTQPATGGLFGGNTQPATGGLFGGNTQPATGGLFGGNTQPATGGLFGGNTQPATGGLFGGNTQPATGGLFGGNTQPATGGLFGGNTQPATGGLFGGNTQPATGGLFGGNTQPATGGLFGGNTQPATGGLFGGNTQPATGGLFGGNTQPATGGLFGGNTQPATGGLFGGNTQPATGGLFGGNTQPATGGLFGGNTQPATGGLFGGNTQPATGGLFGGNTQPATGGLFGGNTQPATGGLFGGNTQPATGGLFGGNTQPATGGLFGGNTQPATGGLFGGNTQPAT
notes: also called N = 44; not shown: histidine tag with a SUMO cleavage site, N-terminal, cleaved
[2]
  binding result: binds

B4: prf.GLFG_(37×12) (domain or fragment)
chain: GGLFGGNTQPATGGLFGGNTQPATGGLFGGNTQPATGGLFGGNTQPATGGLFGGNTQPATGGLFGGNTQPATGGLFGGNTQPATGGLFGGNTQPATGGLFGGNTQPATGGLFGGNTQPATGGLFGGNTQPATGGLFGGNTQPATGGLFGGNTQPATGGLFGGNTQPATGGLFGGNTQPATGGLFGGNTQPATGGLFGGNTQPATGGLFGGNTQPATGGLFGGNTQPATGGLFGGNTQPATGGLFGGNTQPATGGLFGGNTQPATGGLFGGNTQPATGGLFGGNTQPATGGLFGGNTQPATGGLFGGNTQPATGGLFGGNTQPATGGLFGGNTQPATGGLFGGNTQPATGGLFGGNTQPATGGLFGGNTQPATGGLFGGNTQPATGGLFGGNTQPATGGLFGGNTQPATGGLFGGNTQPATGGLFGGNTQPATGGLFGGNTQPAT
notes: also called N = 37; 37× repeats; not shown: histidine tag with a SUMO cleavage site, N-terminal, cleaved
[2]
  binding result: binds

B5: prf.GLFG_(26×12) (domain or fragment)
chain: GGLFGGNTQPATGGLFGGNTQPATGGLFGGNTQPATGGLFGGNTQPATGGLFGGNTQPATGGLFGGNTQPATGGLFGGNTQPATGGLFGGNTQPATGGLFGGNTQPATGGLFGGNTQPATGGLFGGNTQPATGGLFGGNTQPATGGLFGGNTQPATGGLFGGNTQPATGGLFGGNTQPATGGLFGGNTQPATGGLFGGNTQPATGGLFGGNTQPATGGLFGGNTQPATGGLFGGNTQPATGGLFGGNTQPATGGLFGGNTQPATGGLFGGNTQPATGGLFGGNTQPATGGLFGGNTQPATGGLFGGNTQPAT
notes: also called N = 26; 26× repeats; source: E. coli NEB Express, soluble fraction, purified (Ni(II) chelate column, on-column bdSENP1 cleavage, lyophilized); not shown: histidine tag with a SUMO cleavage site, N-terminal, cleaved
[2]
  binding result: binds
